These results are taken from PMC5703852, “Functional interplay between the transcription factors USF1 and PDX-1 and protein kinase CK2 in pancreatic β-cells” (Scientific Reports, 2017).

For the experiment, the target named is T1, GST-USF1 T100D (UniProt P22415 1-310, T100D).
T1 construct: USF1 with the CK2 phosphorylation site threonine 100 changed to the phospho-mimicking aspartic acid, as GST fusion; also called phospho-mimicking USF1_(T100D) mutant; source: bacterial expression, purified GST fusion protein
T1 sequence (P22415 whole entry T100D, the tested form may be a part): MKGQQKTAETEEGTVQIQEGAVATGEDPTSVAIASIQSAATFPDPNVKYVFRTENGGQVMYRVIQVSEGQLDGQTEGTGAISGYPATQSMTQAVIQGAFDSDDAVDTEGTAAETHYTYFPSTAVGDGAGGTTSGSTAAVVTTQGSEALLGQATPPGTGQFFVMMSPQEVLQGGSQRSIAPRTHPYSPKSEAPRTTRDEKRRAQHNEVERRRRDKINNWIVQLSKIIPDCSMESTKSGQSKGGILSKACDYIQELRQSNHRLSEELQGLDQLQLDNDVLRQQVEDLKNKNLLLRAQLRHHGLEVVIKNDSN
Description: pull-down; 10 µg purified GST fusion protein on GSH-sepharose in PBS-T (PBS pH 7.4, 1% Tween 20), 2 h at 4 °C with 7.5 µl in vitro translated [35S]methionine-labelled partner; SDS-PAGE, Coomassie, autoradiography. The settings on record: one partner purified.

B1: in vitro translated PDX-1 (pRSET-PDX-1) (natural protein)
chain: not shown
modifications: [35S]methionine labelled
notes: mouse PDX-1 cDNA cloned in frame into the BamH1/HindIII sites of pRSETA; also called wild-type PDX-1; source: in vitro translated (from pRSET-PDX-1, Promega)
Regarding B1, the “fold binding against wild-type or alanine mutant USF1” value was found to be 3.5 fold.
